# Reference: patent US20100166708A1, “ANTIMICROBIAL AND ANTI-INFLAMMATORY THERAPIES AND COMPOSITIONS” (THE REGENTS OF THE UNIVERSITY OF CALIFORNIA, priority 2007, published 2010)
# Columns and labels:
# [1] = target: delta-haemolysin (Staphylococcus epidermidis); experiment: tryptophan fluorescence, urea dissociation of peptide complexes, 25 µM peptide
# [2] = target: phenol soluble modulin-delta (Staphylococcus epidermidis); experiment: cell-based or functional assay
# [3] = target: delta-haemolysin (Staphylococcus epidermidis); experiment: tryptophan fluorescence, urea dissociation of peptide complexes, 5 µM peptide
substance,measurement,setting,value
delta-haemolysin (peptide),deltaG^1(H2O),[1],1.57 kcal/mol
same,MIC of delta-haemolysin against GAS in the presence of 2 µM PSMdelta,[2],4 µM
same,deltaG^1(H2O),[3],1.43 kcal/mol
